Legend:
[1] = system: Akt phosphorylation of the HepG2 cells; experiment: Akt phosphorylation of HepG2 cells incubated with mLeg1 protein partially purified from salivary glands (Western blot); format: cell-based, human
Description: 16.1.1 The salivary glands of two to three wild-type mice were harvested and rinsed in the pre-cooled PBS buffer, minced into fine pieces with scissors, and then transferred to a tissue homogenizer, added with 4 ml of lysate buffer (50 mM Tris-Hcl, pH 8.0, 150 mM NaCl, 0.5% NP40, 2× complete), fully homogenized on ice by pipetting through a 23G needle repeatedly, incubated for 30 minutes at 4° C. in a vertical shaker, and then centrifuged at 12000 g at 4° C. for 15 minutes to collect the supernatant.
16.1.2 The supernatant was passed through a sepharose 6B gel filtration column at a constant speed at 4° C., wherein the PBS buffer was used for elution, and different eluted components were separately collected by 4 ml per tube.
16.1.3 The content of mLeg1 in each tube was detected by Western blot. The tube with the highest mLeg1 content was taken as partially purified mLeg1, and the concentration of mLeg1 protein was estimated using the recombinantly-expressed mLeg1 protein in Escherichia coli as a reference, for subsequent experiments.
16.1.4 The partially purified mLeg1 protein was diluted to different concentrations (3.14×10^−2 ng/0.314 ng/μl and 3.14 ng/μl), and the different concentrations of mLeg1 protein were added to HepG2 culture medium respectively to culture HepG2, followed by incubation at 37° C. for 20 minutes, then total protein was extracted (as to the method of extraction, reference can be made to step 13.2), and Akt phosphorylation level at the different concentrations was detected by Western blot (referring to step 14.3, anti-p-Akt antibody (S473, Cell signaling #4060P) was selected as the corresponding antibody, and the dilution ratio was 1:1000).
16.2.1 mLeg1 protein-enriched components from wild-type mice and from mLeg1^Δ/Δ mice were extracted respectively. […]
16.2.3 The Akt phosphorylation level at different concentrations was detected by Western blot (reference can be made to step 13.2 for details, anti-p-Akt antibody (S473, Cell signaling #4060P) was selected as the corresponding antibody, and the dilution ratio in use was 1:1000).

[2] = mLeg1 protein in liver of mLeg1Δ/Δ mice after intragastric administration (immunoprecipitation); format: in vivo, mouse
Description: 22.1 The column chromatography partially purified mLeg1 protein was intragastrically administered to the mLeg1^Δ/Δ mice at 50 ng of mLeg1 per gram of body weight of the mice.
22.2 The mice were sacrificed at different time points (0, 10, 20, 40, 60 min) after intragastric administration and liver samples were collected, an immunoprecipitation experiment was conducted to pull down mLeg1 protein (if there is any) and its interacting protein in the liver by using mLeg1 antibodies Reference may be made to steps 21.2-21.5.

RTKs = experiment: Phospho-RTK array, HepG2 cells: other RTKs; format: cell-based, human; conditions: HepG2, Phospho-RTK array (49 RTKs)
Description: 19.1 The screening of receptor tyrosine kinase was performed by a RTK assay kit (Proteome Profiler Human Phospho-RTK Array Kit, R&D Cat. no. ARY001B) according to the manufacturer's instruction. The kit can detect 49 of 58 RTKs in total. The operation steps are summarized as follows: mLeg1 and a control were used to treat the cells (cells were grown in a 10 cm petri dish) separately, and then 500 μl of lysis buffer17 was used to lyse the cells; the RTK screening membrane was blocked for 1 hour using Assay buffer1 and then coated with a cell lysate for binding overnight, the resultant product was washed three times with 1× Wash Buffer, 10 minutes each time, then added with Anti-Phospho-Tyrosine-HRP Detection Antibody diluted with 1× Array Buffer2 at the ratio of 1:5000 for incubation at room temperature for 2 hours; followed by washing 3 times with 1× Wash Buffer, 10 minutes each time, then applied with Chemi Reagent Mix and developed, and finally imaged in a fluorescent chemiluminescent imager (Clinx Science Instruments Cat. No. 3400) with the signals recorded.

B1: mLeg1 protein: mouse secretory protein (SEQ ID NO: 2) encoded by mLeg1 gene, partially purified from salivary glands by column chromatography (protein, listed as Mus musculus)
chain: MAVLASWVWVLAGCFCAAVAEVSDSSDPYPPLWEDSPEQLSDYMMEDGNYIINPWVYTDRMGMYRILLEETAMYFAKYGPENEQNLLWGLPLQFGWQYQSGRLADPTGMTDCGNELNESLCVSVDSWWADINYYLSVIPFLAAVDSGITGISPNQITILPPPKDQMRFCYNVSDCQSAVPGTMNRWRDFFQYMQLNSSDFDGLLNYLWEAHASSLDYPTSAFGDRYNFYSEKEANFEENWAIAVNYLAAARLPTTQNRTYSFQRGLPPRVLVDTDIAPFIPDFTPLQNEVLVSLKLLGDTDRNSGSLSLTLWENLMSTKLARTLFLKAFEEFLATSS
modifications: partially purified
induction of Akt phosphorylation ([1]; HepG2, 37° C. 20 minutes, 3.14×10^−2, 0.314 and 3.14 ng/μl): could induce Akt phosphorylation | level of partially purified mLeg1 able to induce Akt phosphorylation of the HepG2 cells ([1]; HepG2, 20 minutes): nanogram levels | ability to induce Akt phosphorylation ([1]; HepG2, 20 minutes, compared with corresponding components of mLeg1Δ/Δ salivary glands): significantly higher | mLeg1 in the liver ([2]; 40 minutes and 60 minutes after intragastric administration): decreased | time at which the amount of mLeg1 protein in the liver reached the maximum value ([2]; mLeg1Δ/Δ mice, 50 ng per gram of body weight, intragastric): 20 min | activity of most of the RTKs (RTKs): not influenced
